From article PMC3326535

Tests used:
[1] = biological target: Human quinolinate phosphoribosyltransferase (hQPRTase) (human) (UniProt Q15274); test: crystal structure
[2] = biological target: Human quinolinate phosphoribosyltransferase (hQPRTase) (human) (UniProt Q15274); test: SEC

Substance: Human quinolinate phosphoribosyltransferase (hQPRTase) (from UniProt Q15274 1-297) (enzyme)
- stoichiometry N [1]: 6
- stoichiometry N [2]: 6
